Here are results for two molecules from patent US20260265374A1 (JW THERAPEUTICS R AND D SHANGHAI, published 2026).

The target in the assay is T1, Soluble CD19 protein (amino acids 20-291) (UniProt P15391 20-291).
T1 construct: range 20-291; Analyte in SPR, 300 nM to 4.69 nM; also called cognate ligand CD19
T1 sequence (looked up): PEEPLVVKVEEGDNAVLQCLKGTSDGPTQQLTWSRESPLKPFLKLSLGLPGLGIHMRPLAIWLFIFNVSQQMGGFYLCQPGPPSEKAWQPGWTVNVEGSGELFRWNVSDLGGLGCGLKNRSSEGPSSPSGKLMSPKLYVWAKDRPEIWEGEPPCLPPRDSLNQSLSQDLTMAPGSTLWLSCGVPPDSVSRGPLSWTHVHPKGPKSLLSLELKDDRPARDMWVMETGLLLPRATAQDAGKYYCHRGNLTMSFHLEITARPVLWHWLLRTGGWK
The assay can be described thus: SPR (Biacore T200), antibody captured on Protein A chip, soluble CD19 as analyte. How it is done:
All SPR experiments were performed on a Biacore T200 (PCytiva) with HBS-EP as running buffer. The antibodies were captured by Protein A chip (LOT #10309880, Cytiva). Soluble CD19 protein (amino acids 20-291) was used as the analyte at concentrations ranging from 300 nM to 4.69 nM through the flow cells for 120 seconds followed by dissociation analysis for 300 seconds. Association rates (Kon), dissociation rates (Koff) and the constant Ka (Kon/Koff) were fitted to the results.
Background: SPR reads the build-up and loss of mass on a sensor chip optically.

B1: Antibody comprising scFv-2 fused with human IgG1 Fc fragment (Fc fusion)
chain: DIQMTQTTSSLSASLGDRVTISCRASQDISKYLNWYQQRPDGTVKLLIYHTSRLHSGVPSRFSGSGSGTDYSLTISNLEPEDIATYFCQQGNTLPYTFGGGTKLEITGSTSGSGKPGSGEGSTKGEVKLQESGPGLVAPSQSLSVTCTVSGVSLPDYGVSWIRQPPRKGLEWLGVIWGSETTYYNSALKSRLTIIKDNSKSQVFLKMNSLQTDDTAIYYCAKHYYYGGSYAMDYWGQGTSVTVSS
notes: scFv fused with human IgG1 Fc; not shown: human IgG1 Fc fragment
Consider B1, for which the binding result is recorded as “binds”.

B2: Antibody comprising scFv-1 fused with human IgG1 Fc fragment (Fc fusion)
chain: DIQMTQTTSSLSASLGDRVTISCRASQDISKYLNWYQQRPDGTVKLLIYHTSRLHSGVPSRFSGSGSGTDYSLTISNLEPEDIATYFCQQGNTLPYTFGSGTRLEITGSTSGSGKPGSGEGSTKGEVKLQESGPGLVAPSQSLSVTCTVSGVSLPDYGVSWIRQPPRKGLEWLGVIWGSETTYYNSALKSRLTIIKDNSKSQVFLKMNSLQTDDTAIYYCAKHYYYGGSYAMDYWGQGTSVTVSS
notes: as for B1
As for B2, the binding result is recorded as “binds”.
